From US12686710B2, “Anti-HER2 polypeptides derivatives as new diagnostic molecular probes” (BRACCO IMAGING S.P.A., priority 2019, dated 2026)

Assays:
HER2 = HER2 (Homo sapiens, UniProt P04626); assay: ELISA monitoring of affitin selection against HER2; assay type: binding; details: end of selection process
Excerpt: (§1) To selectively target HER2 receptor, a library of affitins has been enriched against the target by several consecutive rounds of screening (up to 6 rounds). The enrichment of anti-HER2 afftins has been followed after any selection round by ELISA assay monitoring, also controlling the condition of negligible binding to human (HSA), murine (MSA) and bovine (BSA) serum albumin.

[1] = tested on: SK-BR-3 breast adenocarcinoma cell line (overexpressing HER2 receptor); assay: Cell internalization assay with Pe38 fusion, cell viability; assay type: cell-based, human; details: Aff03 tested as fusion Aff04-0-Pe38 (SEQ ID NO: 5), different concentrations
Method: (§2) The cells internalization of Aff03 was evaluated using a dedicated cell-based assay. […] Such truncated form (Pe38) needs to be internalized by means of the Aff03 to keep its cytotoxic activity.
(§3) To test internalization, then, the viability of the breast adenocarcinoma cell line SK-BR-3 (overexpressing HER2 receptor) and of the breast cancer cell line MCF-7 (low expressing HER2 receptor) was measured at different nanofitin concentrations.

[2] = tested on: MCF-7 breast cancer cell line (low expressing HER2 receptor); assay: as above; assay type: cell-based, human; details: Aff03 tested as fusion Aff04-0-Pe38 (SEQ ID NO: 5), different concentrations
Method: as §2, §3

[3] = tested on: human (HSA), murine (MSA) and bovine (BSA) serum albumin; assay: ELISA control of binding to serum albumins
Excerpt: as §1

B1: Aff03: 64 aac affitin of SEQ ID NO: 1, HER2-binding polypeptide (protein, listed as Sulfolobus acidocaldarius)
chain: VKVKFGHMGEEKEVDTSKIYAVNRAGKFVHFAYDDNGKFGSGSVPEKDAPKELLDMLARAEREK
affinity to HER2 (HER2): nanomolar affinity | cytotoxic induction (cell viability) as measure of internalization [1]: dose-dependent cytotoxic induction | cytotoxic induction (cell viability) as measure of internalization [2]: no significant alterations | binding to albumin [3]: absence of binding to albumin
